These results are taken from paper PMC9701222, “Molecular basis for DNA recognition by the maternal pioneer transcription factor FoxH1”.

Usually Kd stands for the free concentration of one partner at which half of the binding sites on the other are occupied at equilibrium, for simple one-to-one binding.

The target of data set [1] is T1, FoxH1 FH domain (species not stated) (UniProt O75593).
T1 sequence: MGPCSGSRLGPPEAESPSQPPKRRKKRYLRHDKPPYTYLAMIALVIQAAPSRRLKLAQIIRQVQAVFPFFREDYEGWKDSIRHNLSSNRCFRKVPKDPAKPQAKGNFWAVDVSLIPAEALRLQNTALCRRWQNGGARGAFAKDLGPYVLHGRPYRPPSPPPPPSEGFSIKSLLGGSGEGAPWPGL
Briefly: BLI. The settings on record: BLI: 20 mM Tris pH 7.6, 100 mM NaCl, 2 mM DTT, 0.02% Tween-20, 0.01% BSA, 25 C; EMSA: 100 mM Tris, 10% glycerol, 7.5 nM Cy5-DNA, 4 C.

The target in another data set is T2, hFoxA2 FH (Homo sapiens) (UniProt Q9Y261).
T2 sequence: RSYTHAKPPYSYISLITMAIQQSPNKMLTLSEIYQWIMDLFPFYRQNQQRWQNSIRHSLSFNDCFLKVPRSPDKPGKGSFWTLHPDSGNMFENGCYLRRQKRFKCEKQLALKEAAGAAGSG
Briefly: BLI. Conditions: BLI: 20 mM Tris pH 7.6, 100 mM NaCl, 2 mM DTT, 0.02% Tween-20, 0.01% BSA, 25 C; EMSA: 100 mM Tris, 10% glycerol, 7.5 nM Cy5-DNA, 4 C.

Data set [2] concerns the target T3, hFoxA2 FH (Homo sapiens, UniProt Q9Y261 153-273).
T3 sequence: T2 sequence
In words: BLI; BLI: 20 mM Tris pH 7.6, 100 mM NaCl, 2 mM DTT, 0.02% Tween-20, 0.01% BSA, 25 C; EMSA: 100 mM Tris, 10% glycerol, 7.5 nM Cy5-DNA, 4 C. The settings on record: protein: recombinant; tags: His-SUMO removed (Ulp1); label: 5'-biotin (BLI). A general note: Biolayer interferometry detects binding as a change in optical thickness at a sensor tip.

Data set [3] has as its target T4, dFoxH1 FH (Danio rerio, UniProt Q9I9E1 86-210).
T4 sequence: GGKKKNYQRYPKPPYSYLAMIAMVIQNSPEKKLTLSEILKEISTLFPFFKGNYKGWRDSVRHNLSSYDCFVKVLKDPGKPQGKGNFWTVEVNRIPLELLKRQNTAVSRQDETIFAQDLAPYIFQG
Briefly: X-ray; BLI: 20 mM Tris pH 7.6, 100 mM NaCl, 2 mM DTT, 0.02% Tween-20, 0.01% BSA, 25 C; EMSA: 100 mM Tris, 10% glycerol, 7.5 nM Cy5-DNA, 4 C. Conditions: protein: recombinant; tags: His-SUMO removed (Ulp1); blunt. Background: A gel shift assay detects complexes by their altered migration in electrophoresis.

Data set [4] deals with T3, hFoxA2 FH. The description is as above. The settings on record: protein: recombinant; tags: His-SUMO removed (Ulp1); blunt.
The target in data set [5] is T3, hFoxA2 FH. Briefly: EMSA; BLI: 20 mM Tris pH 7.6, 100 mM NaCl, 2 mM DTT, 0.02% Tween-20, 0.01% BSA, 25 C; EMSA: 100 mM Tris, 10% glycerol, 7.5 nM Cy5-DNA, 4 C. The settings on record: protein: recombinant; tags: His-SUMO removed (Ulp1); label: 5'-Cy5.
Data set [6] deals with T4, dFoxH1 FH. In words: X-ray; K+; BLI: 20 mM Tris pH 7.6, 100 mM NaCl, 2 mM DTT, 0.02% Tween-20, 0.01% BSA, 25 C; EMSA: 100 mM Tris, 10% glycerol, 7.5 nM Cy5-DNA, 4 C. The settings on record: protein: recombinant; tags: His-SUMO removed (Ulp1); blunt.

For “ACAAGGCCTGAAAAGAGATTGTGGATTGCGAATTAATGAAATTAACCTAATCTTTTCCATTCGGCAGCCGGGCCGCGGGCCGGCCGAGCTGGGCGGGCGGCCTAATTGCCTTGGTTAATCTCATTAATTCCTTTGTGCCGCCGCAGTTAACAACTCCCTCCGCCCGA (double strand) [Gsc167 linear DNA]”, the Kd in data set [1] is 13 nM.

For “ACAAGGCCTGAAAAGAGATTGTGGATTGCGAATTAATGAAATTAACCTAATCTTTTCCATTCGGCAGCCGGGCCGCGGGCCGGCCGAGCTGGGCGGGCGGCCTAATTGCCTTGGTTAATCTCATTAATTCCTTTGTGCCGCCGCAGTTAACAACTCCCTCCGCCCGA (double strand) [Gsc167 nucleosome]”, the figures for the Kd (in data set [1]; with hFoxA2 FH (Homo sapiens)) were 5 nM and 30 nM, respectively.

B1: Gsc167 linear DNA (dsDNA)
DNA 1: ACAAGGCCTGAAAAGAGATTGTGGATTGCGAATTAATGAAATTAACCTAATCTTTTCCATTCGGCAGCCGGGCCGCGGGCCGGCCGAGCTGGGCGGGCGGCCTAATTGCCTTGGTTAATCTCATTAATTCCTTTGTGCCGCCGCAGTTAACAACTCCCTCCGCCCGA
DNA 2: TCGGGCGGAGGGAGTTGTTAACTGCGGCGGCACAAAGGAATTAATGAGATTAACCAAGGCAATTAGGCCGCCCGCCCAGCTCGGCCGGCCCGCGGCCCGGCTGCCGAATGGAAAAGATTAGGTTAATTTCATTAATTCGCAATCCACAATCTCTTTTCAGGCCTTGT
Consider B1, for which the Kd in the data set with hFoxA2 FH [2] turned out to be 800 nM.

B2: FKH-TTACT-GSCflank (dsDNA)
DNA 1: AGATTGTTTACTGAGA
DNA 2: TCTCAGTAAACAATCT
In the case of B2, the binding result with dFoxH1 FH [3] and with hFoxA2 FH [4] was “binds” each time.

B3: dGSC-TT-16a (dsDNA)
DNA 1: AGATTGTTTATTGAGA
DNA 2: TCTCAATAAACAATCT
As for B3, the binding result in the data set with dFoxH1 FH [3] and in the data set with hFoxA2 FH [4] was “binds” throughout.

B4: TT forkhead DNA, 16 bp (EMSA) (dsDNA)
DNA 1: AGATTGTTTACTGAGA
DNA 2: TCTCAGTAAACAATCT
For the molecule B4, the binding result in the data set with hFoxA2 FH [5] is reported as “binds”.

B5: dGSC-GT-16a (dsDNA)
DNA 1: AGATTGTGTATTGAGA
DNA 2: TCTCAATACACAATCT
As to B5, the binding result with dFoxH1 FH [6] is reported as “binds”.

B6: dGSC-GG-16a (dsDNA)
DNA 1: AGATTGTGGATTGAGA
DNA 2: TCTCAATCCACAATCT
In the case of B6, in the data set with dFoxH1 FH [6], the binding result is recorded as “binds”.
